Results as given in patent US20250332197A1 (SUNSHINE LAKE PHARMA, published 2025).

T1: claudin-18.2 antigen (manufacturer: GenScript, batch number: R50092011) (UniProt P56856-2 1-261, limits assumed)
T1 construct: Bought antigen
T1 sequence (looked up): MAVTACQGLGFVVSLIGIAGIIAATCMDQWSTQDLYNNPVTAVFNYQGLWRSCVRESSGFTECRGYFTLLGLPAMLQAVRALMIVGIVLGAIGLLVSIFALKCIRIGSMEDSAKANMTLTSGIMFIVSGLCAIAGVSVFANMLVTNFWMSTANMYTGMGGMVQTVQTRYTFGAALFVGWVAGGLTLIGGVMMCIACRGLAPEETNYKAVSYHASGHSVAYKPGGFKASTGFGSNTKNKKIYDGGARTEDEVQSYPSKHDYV


Experiments:
[1] = target: T1, claudin-18.2 antigen (manufacturer: …); assay: ELISA, plate coated with claudin-18.2 antigen
Method in brief: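 Antigen-coated, milk-blocked plates incubated with diluted antibodies 60 min at room temperature, then anti-human IgG-Fc-HRP 50 min. TMB development with OD450 read-out; EC50 derived from binding curves.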

[2] = target: T1, claudin-18.2 antigen (manufacturer: …); assay: Gator label-free kinetics, antibody loaded, antigen 2000-500 nM
Method: The GATOR instrument and associated software were opened and the Kinetics experimental mode was selected. After data collection, Kinetics fitting was performed to calculate the affinity kinetic parameters. The correlation coefficient R² of all antibodies in the Global fitting mode was greater than 0.95, which met the system suitability requirements and the results were reliable.

Binder	EC50 [1] [µg/mL]	Kd [2] [nM]	koff [2] [s⁻¹]	kon [2] [M⁻¹ s⁻¹]
1B6-huVH3-HC (IgG1) huVL1 (antibody, humanized 1B6, human IgG1, kappa) heavy: not shown light: DIVMTQSPSSLSVSVGDRVTMTCKSSQSLFNSGNQKNYLTWYQQKPGKAPKLLIYWASTRESGVPDRFSGSGSGTDFTLTISSVQPEDFATYFCQNDYSYPLTFGGGTKLEIKRTVAAPSVFIFPPSDEQLKSGTASVVCLLNNFYPREAKVQWKVDNALQSGNSQESVTEQDSKDSTYSLSSTLTLSKADYEKHKVYACEVTHQGLSSPVTKSFNRGEC	0.0592	7.65	7.83e-05	10200
1B6-huVH3-HC (IgG1) huVL3 (antibody, humanized 1B6, human IgG1, kappa) heavy: not shown light: DIQMTQSPSSLSASVGDRVTITCRSSQSLFNSGNQKNYLTWYQQKPGKAPKLLIYWASTRESGVPSRFSGSGSGTDFTLTISSLQPEDFATYYCQNDYSYPLTFGGGTKLEIKRTVAAPSVFIFPPSDEQLKSGTASVVCLLNNFYPREAKVQWKVDNALQSGNSQESVTEQDSKDSTYSLSSTLTLSKADYEKHKVYACEVTHQGLSSPVTKSFNRGEC	0.0725	9.64	0.000116	12100
1B6-huVH4-HC (IgG1) huVL2 (antibody, humanized 1B6, human IgG1, kappa) heavy: not shown light: DIQMTQSPSSLSASVGDRVTMTCKSSQSLFNSGNQKNYLTWYQQKPGKAPKLLIYWASTRESGVPSRFSGSGSGTDFTLTISSLQPEDFATYYCQNDYSYPLTFGGGTKLEIKRTVAAPSVFIFPPSDEQLKSGTASVVCLLNNFYPREAKVQWKVDNALQSGNSQESVTEQDSKDSTYSLSSTLTLSKADYEKHKVYACEVTHQGLSSPVTKSFNRGEC	0.0431	20.5	0.000207	10100
1B6-huVH4-HC (IgG1) huVL3 (antibody, humanized 1B6, human IgG1, kappa) heavy: not shown light: DIQMTQSPSSLSASVGDRVTITCRSSQSLFNSGNQKNYLTWYQQKPGKAPKLLIYWASTRESGVPSRFSGSGSGTDFTLTISSLQPEDFATYYCQNDYSYPLTFGGGTKLEIKRTVAAPSVFIFPPSDEQLKSGTASVVCLLNNFYPREAKVQWKVDNALQSGNSQESVTEQDSKDSTYSLSSTLTLSKADYEKHKVYACEVTHQGLSSPVTKSFNRGEC	0.0519	43.9	0.000799	18200
1B6-huVH5-HC (IgG1) huVL2 (antibody, humanized 1B6, human IgG1, kappa) heavy: not shown light: DIQMTQSPSSLSASVGDRVTMTCKSSQSLFNSGNQKNYLTWYQQKPGKAPKLLIYWASTRESGVPSRFSGSGSGTDFTLTISSLQPEDFATYYCQNDYSYPLTFGGGTKLEIKRTVAAPSVFIFPPSDEQLKSGTASVVCLLNNFYPREAKVQWKVDNALQSGNSQESVTEQDSKDSTYSLSSTLTLSKADYEKHKVYACEVTHQGLSSPVTKSFNRGEC	0.0298	59.7	0.00129	21600
1B6-huVH5-HC (IgG1) huVL3 (antibody, humanized 1B6, human IgG1, kappa) heavy: not shown light: DIQMTQSPSSLSASVGDRVTITCRSSQSLFNSGNQKNYLTWYQQKPGKAPKLLIYWASTRESGVPSRFSGSGSGTDFTLTISSLQPEDFATYYCQNDYSYPLTFGGGTKLEIKRTVAAPSVFIFPPSDEQLKSGTASVVCLLNNFYPREAKVQWKVDNALQSGNSQESVTEQDSKDSTYSLSSTLTLSKADYEKHKVYACEVTHQGLSSPVTKSFNRGEC	0.035	76.8	0.00175	22700
1B6-huVH1huVL1 (antibody, human IgG4 S228P, kappa, humanized 1B6, human IgG4, kappa) heavy: not shown light: DIVMTQSPSSLSVSVGDRVTMTCKSSQSLFNSGNQKNYLTWYQQKPGKAPKLLIYWASTRESGVPDRFSGSGSGTDFTLTISSVQPEDFATYFCQNDYSYPLTFGGGTKLEIKRTVAAPSVFIFPPSDEQLKSGTASVVCLLNNFYPREAKVQWKVDNALQSGNSQESVTEQDSKDSTYSLSSTLTLSKADYEKHKVYACEVTHQGLSSPVTKSFNRGEC	0.0839	98.8	0.00222	22400
